A short description of data set [1]: Effect of the inkjet printing process on nanosystems (properties before and after printing on inert substrate). To be noted: lysozyme in nanoparticles. It counts as physicochemical. The method, then:
The process of printing on an inert substrate using a suspension with a nanosystem as carriers of biologic drug models was performed using polymeric nanoparticles. The suspension was incorporated into a cartridge for inkjet printing. The particle properties were measured before and after the printing process. […] Results are expressed as means (standard deviation). Except for an increase in the polydispersity index (PDI), the particles maintain their properties during the printing process and define the methodology for incorporating drug loaded nanoparticles on polymer films.
The obtained printing inks with lysozyme or insulin were loaded into Hewlett Packard cartridges compatible with Hewlett Packard Deskjet 1000 printer, and it was installed to run the printing experiments. Using a commercial software tool appropriate for the task, surfaces of 3×3 cm^2 were printed on an inert substrate to evaluate the effect of the printing process on the polymeric nanoparticles. After the printing process, the printed polymeric nanoparticles were recovered by refluxing with 1 mL of Milli-Q® water, and their physicochemical properties in terms of size, polydispersity index, and zeta potential were determined.

Data set [2] can be described thus: FTIR of lysozyme inks with or without glycerol. It counts as physicochemical. The following applies: FIG. 13. Here is the method:
On the other hand, since these inks require the addition of glycerol as a viscosity agent, the evaluation of lysozyme inks was performed with or without glycerol by infrared spectroscopy Fourier transform (FTIR).

Consider lysozyme, for which the “Amount immobilized at the particle and biologic structure during the printing process (load and protein activity studies)” value in data set [1] is “preserved during the printing process”. Besides, the “Major bands of the FTIR spectra, ink with or without glycerol” value in data set [2] is “does not change during the process”.

These data come from patent publication US20220280440A1, “METHOD FOR THE MANUFACTURE OF A DOSAGE FORM WITH MUCOADHESIVE PROPERTIES FOR BUCCAL ADMINISTRATION OF BIOLOGICS” (UNIVERSIDAD DE CHILE, priority 2016, published 2022).
